This passage reports Kd results from paper PMC6035287.

The target in this test is bovine brain tubulin (free tubulin) (bovine) (UniProt Q6B856). In words: ITC; TOG domain proteins in the syringe (150 μM CLASP2 TOG1, TOG2, TOG3; 200 μM CLIP-ID; 250 μM Stu2 TOG1), 15 μM bovine brain tubulin in the cell; BRB80 with 50 mM NaCl, 25°C; one set of sites model. Background: In ITC the heat of successive injections is recorded.

B1: Stu2 TOG1 (domain or fragment)
chain: MSGEEEVDYTTLPLEERLTYKLWKARLEAYKELNQLFRNSVGDISRDDNIQIYWRDPTLFAQYITDSNVVAQEQAIVALNSLIDAFASSSLKNAHNITLISTWTPLLVEKGLTSSRATTKTQSMSCILSLCGLDTSITQSVELVIPFFEKKLPKLIAAAANCVYELMAAFGLTNVNVQTFLPELLKHVPQLAGHGDRNVRSQTMNLIVEIYKVTGNNSDLLEEILFKKLKPIQVKDLHKLFAKVGDEPSSSKMLFEWEKRELEKKRSQEEEA
Usually Kd stands for the equilibrium constant for the complex coming apart. Molecule B1 returned a Kd of 18.8 nM.
